Patent publication US20190153410A1 (NOVOZYMES A S, published 2019)

Legend:
[1] = biological target: T1, propeptide of Rhizomucor miehei lipase (RmL propeptide)
T1 chain: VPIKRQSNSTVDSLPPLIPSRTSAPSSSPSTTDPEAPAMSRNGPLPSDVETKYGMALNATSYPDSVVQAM

[2] = biological target: T2, MuciLip2CN (SEQ ID NO: 6); assay: cell-based or functional assay
T2 chain: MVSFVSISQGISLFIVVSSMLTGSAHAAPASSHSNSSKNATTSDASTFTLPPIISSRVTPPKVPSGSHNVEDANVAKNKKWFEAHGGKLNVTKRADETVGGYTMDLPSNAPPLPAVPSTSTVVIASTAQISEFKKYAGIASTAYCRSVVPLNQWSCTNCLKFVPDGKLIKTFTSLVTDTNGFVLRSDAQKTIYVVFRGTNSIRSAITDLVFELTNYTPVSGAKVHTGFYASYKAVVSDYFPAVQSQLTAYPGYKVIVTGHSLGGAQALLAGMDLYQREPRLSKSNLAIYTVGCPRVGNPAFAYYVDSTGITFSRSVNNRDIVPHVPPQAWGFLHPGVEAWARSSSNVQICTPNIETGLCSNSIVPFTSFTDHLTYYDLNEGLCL

[3] = biological target: T3, Lipex (SEQ ID NO: 5) (Thermomyces lanuginosus (Thermophilic …, UniProt O59952 23-291)); assay: cell-based or functional assay
T3 chain: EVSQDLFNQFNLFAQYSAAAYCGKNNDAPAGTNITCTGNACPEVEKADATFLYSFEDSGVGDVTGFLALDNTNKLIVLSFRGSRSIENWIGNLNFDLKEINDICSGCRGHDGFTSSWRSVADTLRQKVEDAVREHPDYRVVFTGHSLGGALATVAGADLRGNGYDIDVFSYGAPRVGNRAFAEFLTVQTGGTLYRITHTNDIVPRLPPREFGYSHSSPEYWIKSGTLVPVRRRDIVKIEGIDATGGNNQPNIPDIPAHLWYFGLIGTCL

[4] = biological target: T4, Rhizomucor miehei lipase (RmL) mature protein (Rhizomucor miehei, UniProt P19515 95-363); assay: cell-based or functional assay
T4 sequence: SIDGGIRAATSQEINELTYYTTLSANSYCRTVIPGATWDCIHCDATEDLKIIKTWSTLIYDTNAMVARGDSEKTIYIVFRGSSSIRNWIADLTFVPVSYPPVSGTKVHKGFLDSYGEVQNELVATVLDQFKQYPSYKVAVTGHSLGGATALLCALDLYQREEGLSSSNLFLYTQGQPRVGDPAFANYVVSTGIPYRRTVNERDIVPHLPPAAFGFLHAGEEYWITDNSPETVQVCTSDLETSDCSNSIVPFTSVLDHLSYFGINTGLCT

[5] = biological target: T5, RhimiLip1 (SEQ ID NO: 7); assay: cell-based or functional assay
T5 chain: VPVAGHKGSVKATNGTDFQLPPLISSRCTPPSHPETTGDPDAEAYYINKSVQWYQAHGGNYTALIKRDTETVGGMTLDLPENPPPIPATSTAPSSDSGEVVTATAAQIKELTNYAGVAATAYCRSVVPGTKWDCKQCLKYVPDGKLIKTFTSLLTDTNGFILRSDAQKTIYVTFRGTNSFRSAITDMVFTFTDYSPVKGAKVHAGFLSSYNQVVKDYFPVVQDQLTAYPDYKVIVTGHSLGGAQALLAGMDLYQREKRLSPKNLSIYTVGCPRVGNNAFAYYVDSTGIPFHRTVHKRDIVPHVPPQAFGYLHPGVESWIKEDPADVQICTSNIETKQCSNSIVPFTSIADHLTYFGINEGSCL

B1: Rhizomucor miehei lipase (RmL) mature protein (protein)
chain: T4 sequence
- hydrolytic activity on p-nitrophenyl acyl esters (C3, C6, C10, C12, C16), release of p-nitrophenol at 405 nm [1]: RmL with the propeptide bound showed no activity at any of the conditions tested

B2: propeptide of Rhizomucor miehei lipase (RmL propeptide) (peptide)
peptide: T1 chain
- RP(wash) with inhibitor, AMSA, propeptide:lipase 320:1 (normalized to no inhibitor = 1.00) [2]: 1.1
- RP(wash) with inhibitor, AMSA, propeptide:lipase 320:1 (normalized to no inhibitor = 1.00) [3]: 0.89
- RP(wash) with inhibitor, AMSA, propeptide:lipase 320:1 (normalized to no inhibitor = 1.00) [4]: 0.02
- RP(wash) with inhibitor, AMSA, propeptide:lipase 320:1 (normalized to no inhibitor = 1.00) [5]: 0.92
